Columns and labels:
Assay in all cases: co-IP
[1] = biological target: T1, GFP-tagged TOMM20 (UniProt Q15388 1-145)
T1 sequence: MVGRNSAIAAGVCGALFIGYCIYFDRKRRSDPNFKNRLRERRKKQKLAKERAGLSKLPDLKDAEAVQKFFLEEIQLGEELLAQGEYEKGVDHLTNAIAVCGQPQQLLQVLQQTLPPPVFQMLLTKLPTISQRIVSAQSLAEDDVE

[2] = biological target: T2, GFP-tagged TOMM70 (UniProt O94826 1-608)
T2 sequence: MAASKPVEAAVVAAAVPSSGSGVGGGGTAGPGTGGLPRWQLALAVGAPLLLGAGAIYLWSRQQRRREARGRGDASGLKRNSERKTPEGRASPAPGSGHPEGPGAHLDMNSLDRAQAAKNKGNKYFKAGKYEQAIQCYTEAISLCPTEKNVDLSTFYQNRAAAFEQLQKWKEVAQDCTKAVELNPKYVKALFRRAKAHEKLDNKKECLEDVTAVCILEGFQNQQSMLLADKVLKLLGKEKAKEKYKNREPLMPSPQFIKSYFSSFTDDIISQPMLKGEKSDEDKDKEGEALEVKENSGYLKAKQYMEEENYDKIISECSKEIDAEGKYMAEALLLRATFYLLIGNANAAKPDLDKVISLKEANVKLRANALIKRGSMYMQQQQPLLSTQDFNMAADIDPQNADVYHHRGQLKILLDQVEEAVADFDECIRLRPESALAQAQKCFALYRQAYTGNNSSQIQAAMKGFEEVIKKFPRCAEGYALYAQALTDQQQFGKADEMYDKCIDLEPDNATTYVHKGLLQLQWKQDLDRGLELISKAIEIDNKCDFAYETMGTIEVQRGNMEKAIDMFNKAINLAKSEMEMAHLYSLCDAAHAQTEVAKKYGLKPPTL

[3] = biological target: T3, GFP-tagged Prohibitin (PHB) (UniProt P35232 1-272)
T3 sequence: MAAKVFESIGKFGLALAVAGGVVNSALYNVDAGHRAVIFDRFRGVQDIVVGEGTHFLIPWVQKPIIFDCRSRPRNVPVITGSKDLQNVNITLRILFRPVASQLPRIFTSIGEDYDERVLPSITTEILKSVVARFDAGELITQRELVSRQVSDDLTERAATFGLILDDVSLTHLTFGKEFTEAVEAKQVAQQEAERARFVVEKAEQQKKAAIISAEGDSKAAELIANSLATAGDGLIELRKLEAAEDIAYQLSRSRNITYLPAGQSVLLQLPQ

Measured: fold less AURKA in the pulldown than in pulldowns of TPX2

B1: endogenous AURKA (Aurora A kinase) (enzyme)
chain: MDRSKENCISGPVKATAPVGGPKRVLVTQQFPCQNPLPVNSGQAQRVLCPSNSSQRIPLQAQKLVSSHKPVQNQKQKQLQATSVPHPVSRPLNNTQKSKQPLPSAPENNPEEELASKQKNEESKKRQWALEDFEIGRPLGKGKFGNVYLAREKQSKFILALKVLFKAQLEKAGVEHQLRREVEIQSHLRHPNILRLYGYFHDATRVYLILEYAPLGTVYRELQKLSKFDEQRTATYITELANALSYCHSKRVIHRDIKPENLLLGSAGELKIADFGWSVHAPSSRRTTLCGTLDYLPPEMIEGRMHDEKVDLWSLGVLCYEFLVGKPPFEANTYQETYKRISRVEFTFPDFVTEGARDLISRLLKHNPSQRPMLREVLEHPWITANSSKPSNCQNKESASKQS
≥ 10 fold: all assays above
